Earlier results as cited in article PMC8745658.
pKd: −log10 of the molar value.

Target: Cytochrome b5 soluble isoform (Homo sapiens) (UniProt P00167)
Experiment: flavin autofluorescence

Chain of UniProt P00167 (P00167 2-98): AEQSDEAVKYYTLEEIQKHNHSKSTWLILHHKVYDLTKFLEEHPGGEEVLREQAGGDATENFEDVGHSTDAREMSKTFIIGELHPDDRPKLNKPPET

pKd: 6.30
Substance: Cytochrome b5 reductase soluble isoform (from UniProt P00387)
